From publication PMC10901774, “Mirror-image ligand discovery enabled by single-shot fast-flow synthesis of D-proteins” (Nature Communications, 2024)

Conditions: pH 7.4
Method: For protein targets with no known binding partners and no available activity assays (ERG and IRAK2), we recorded circular dichroism (CD) spectra and compared them to recombinantly derived material.
ERG and IRAK2 Circular Dichroism
Before analysis, all proteins were exchanged into CD buffer (10 mM KP i, 5% glycerol v/v, pH 7.4).
Fast protein liquid chromatography (FPLC) purification was performed using GE Life Sciences
columns on an ÄKTA Pure FPLC system. The ÄKTA Pure, FPLC columns, and all buffers were
stored and subsequently used in a cold room maintained at 4 °C. HiTrap™ Desalting 5 mL: Before
desalting, the column was equilibrated with 20 mL of the CD buffer at 2 mL/min or until the
conductance reading from the ÄKTA Pure stabilizes, whichever is the greater volume. Up to 1.5
mL of sample was loaded into the column using a syringe fitted with a compatible male-end screw
tip, and then the loaded column was attached to the ÄKTA Pure. An isocratic flow of buffer (2 CV) […]
protein solution was determined with Method 1.6.1. […]
mg/mL with additions of CD buffer. All CD spectra were recorded on an AVIV Model 420 Circular […]
Before all readings, cuvettes were cleaned with Hellmanex™ 3 concentrate according to
manufacturer directions. Far circular dichroism spectra were recorded as the average of three […]
with 2 nm bandwidth and 8 second averaging time. Spectra were recorded between 0 and 110 […]

B1: Recombinant ERG: ERG (115-208) recombinantly expressed in E. coli (protein, UniProt P11308 115-208, looked up, fragment)
chain: PPNMTTNERRVIVPADPTLWSTDHVRQWLEWAVKEYGLPDVNILLFQNIDGKELCKMTKDDFQRLTPSYNADILLSHLHYLRETPLPHLTSDDV
  TM (melting temperature), ERG: 71.7±0.8 ºC
